Test results: PMC7508890

Key:
[1] = target: recombinant hemagglutinin (HA) derived from A/Thailand/CU44/2006, wild type (influenza A virus A/Thailand/CU44/2006); experiment: SEC-MALS
[2] = target: recombinant hemagglutinin (HA) derived from A/Thailand/CU44/2006, wild type (influenza A virus A/Thailand/CU44/2006); experiment: […]; 20 mM Tris-HCl pH 8.0, 100 mM NaCl

recombinant hemagglutinin (HA) derived from A/Thailand/CU44/2006, wild type (natural protein)
stoichiometry N [1]: 9 HA trimers
stoichiometry N [2]: 3
